The target of the test is StnCBP-HA-NLuc. As to the kind of experiment: SLC assay (split-luciferase complementation in leaves). As to conditions: luminescence intensity/50 mm2 leaf area; n = 3; parent: est. 3500; read off a plot.

In the case of CLuc-GFP-HC-Pro^O V346I, the response was 3300.

The values are drawn from PMC9531334.
